Measured values from PMC4689063.

Molecular target: Sam68-6H (UniProt Q07666 1-443)
Experiment: EMSA
Details: protein: recombinant; tags: 6xHis (pET30c+); chain copies: 2; label: 5' biotin; two UAAA motifs predicted unpaired

Sam68-6H, sequence (Q07666 whole entry): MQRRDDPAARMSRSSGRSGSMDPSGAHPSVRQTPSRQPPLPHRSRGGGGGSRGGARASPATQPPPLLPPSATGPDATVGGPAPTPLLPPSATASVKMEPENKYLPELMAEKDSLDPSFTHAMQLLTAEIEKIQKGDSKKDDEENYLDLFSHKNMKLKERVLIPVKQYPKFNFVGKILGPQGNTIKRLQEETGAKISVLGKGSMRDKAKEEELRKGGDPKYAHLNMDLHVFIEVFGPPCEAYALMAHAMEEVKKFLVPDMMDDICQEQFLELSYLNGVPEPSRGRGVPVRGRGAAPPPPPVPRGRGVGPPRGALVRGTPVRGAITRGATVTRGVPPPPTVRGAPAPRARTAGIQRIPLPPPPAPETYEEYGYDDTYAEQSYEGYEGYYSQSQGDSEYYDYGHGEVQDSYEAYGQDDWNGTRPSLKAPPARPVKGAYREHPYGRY

B1: WT domain 4 probe (ssRNA)
RNA: AAGGGGACCGGGGCUUCUAUAAAAGCGCCCGGUUUAAAAAGCUUCUAUGUCUGAAUAGGUGACCG
For B1, the “apparent K (half saturation)” value was about 3.16 µM.
